Experimental data published in article PMC12225019.

Molecular target: TRIM21 (tripartite motif-containing 21) (UniProt P19474)
Test: co-IP, immunoblot
Conditions: reference: HMGA2 wild type; sites S105

## HMGA2 (high mobility group protein A2) (from UniProt P52926) HMGA2 S105A
  binding against the reference: weaker
